Experimental data taken from patent US20250179192A1 (PHARMABCINE, published 2025).

What was measured:
hDLL4 = biological target: T1, hDLL4 (human, UniProt Q9NR61 27-524, limits assumed); assay: SPR Biacore T200, fusion protein captured on Protein A chip, antigen as analyte, 1:1 model
T1 construct: Analyte in SPR; also called human delta-like ligand 4 (soluble antigen protein)
Method: (§1) The binding ability of the selected fusion protein to the antigen was measured using SPR (Biacore T200, Cytiva). The fusion protein was captured and analyzed using the antigen protein as an analyte. Using a Protein A chip, the fusion protein was immobilized on the surface according to the manufacturer's instructions. The fusion protein on the sensor chip was diluted with PBS-T running buffer to a concentration of 5 μg/ml and injected at a flow rate of 10 μl/min to reach about 200 RU. The antigen was diluted with PBS-T running buffer by concentration and injected at a flow rate of 30 μl/min for 4 minutes, and the dissociation time was set to 10 minutes. To remove the fusion protein bound every cycle, a regeneration solution (10 mM glycine-HCl, pH 1.5) was injected at a flow rate of 30 μl/min for 1 minute. The experimental results were calculated using the 1:1 binding model of BIA evaluation software version 1.0.

hKDR-ECD = biological target: T2, hKDR-ECD (human, UniProt P35968 20-764); assay: as above
T2 construct: extracellular domain; Analyte in SPR; also called human KDR (VEGFR-2) extracellular domain
Method: as §1

[1] = biological target: T3, hDLL4 expressed on HEK293 cells (human, UniProt Q9NR61 27-685); assay: FACS on hDLL4-overexpressing HEK293 cells (293-DLL4), 5 nM, anti-human IgG-PE secondary; secondary only 82.0
T3 construct: whole, on cells; also called DLL4-overexpressed HEK293 cells
Method: Specifically, the pcDNA-hDLL4 vector synthesized by GeneArt was transfected into HEK293 cells using Lipofectamin™ 2000 (Invitrogen #1168-019, USA), and neomycin (Gibco #10131, 50 mg/ml) was added for selection. Then, all grown cells were collected and cultured in a pool state. Then, 23 types of single colonies were obtained by culture using a limiting dilution method, and among the single colonies, one type of cell line that highly overexpressed hDLL4 was selected and tested. The selected cells were prepared to a concentration of 2×10⁷ cells/ml in FACS buffer (0.5% FBS, 0.05% sodium azide in PBS) and dispensed at 50 μl into each of FACS tubes. 5 nM fusion protein and control antibodies (6A6, 6A6×DLL4, D4, D4×DLL4, Minod-Fc) were added in 100 μl to each of the FACS tubes containing the cells, followed by reaction at 4° C. for 30 minutes. After completion of reaction, 2 ml of FACS buffer was added to each tube, followed by centrifugation at 1500 rpm for 3 minutes. The supernatant was removed, the cells were well resuspended, and then 100 μl of anti-human IgG-PE antibody (1:200, […], #A80-248PE) was added, followed by reaction at 4° C. for 20 minutes. After completion of reaction, 2 ml of FACS buffer was added to each FACS tube, followed by centrifugation at 1500 rpm for 3 minutes. The separated supernatant was removed, the cells were resuspended in 200 μl of FACS buffer, and the binding activity was analyzed using FACS (Beckton Dickinson, Lyric).

VEGFR2 (KDR) on HUVECs = biological target: T4, VEGFR2 (KDR) on HUVECs (human, UniProt P35968 20-1356); assay: FACS on HUVECs, 5 nM, anti-human IgG-PE secondary; secondary only 65.7
T4 construct: Endogenous receptor on HUVECs; also called KDR (VEGFR-2)
Method: To determine the binding activity of the fusion protein to HUVECs, FACS analysis was performed using the fusion protein and control antibodies (6A6, 6A6×DLL4, D4, Minod-Fc).
Specifically, HUVECs (LONZA, Cat No. C2519A) were cultured at 37° C. and 5% CO₂ using a plate coated with 2% gelatin and VascuLife medium complete kit (Lifeline Cell Technology, Cat No. #LCT-LL-0005). The cells were prepared at a concentration of 2×10⁷ cells/ml in FACS buffer (0.5% FBS, 0.05% sodium azide in PBS) and dispensed at 50 μl into each of FACS tubes. 100 μl of each antibody at a concentration of 5 nM was mixed in the FACS tube, followed by reaction at 4° C. for 30 minutes. After completion of reaction, 2 ml of FACS buffer was added to each tube, followed by centrifugation at 1500 rpm for 3 minutes. The supernatant was removed, the cells were resuspended, and 100 μl of anti-human IgG-PE antibody (1:200, Bethyl, #A80-248PE) was added, followed by reaction at 4° C. for 20 minutes. 2 ml of FACS buffer was added to each FACS tube, followed by centrifugation at 1500 rpm for 3 minutes. The separated supernatant was removed, the cells were resuspended in 200 μl of FACS buffer, and the binding activity was analyzed using FACS (Beckton Dickinson, Lyric).

KDR1-3 domains = biological target: T5, KDR1-3 domains (UniProt P35968 20-327, limits assumed); assay: Octet BLI, KDR1-3 domains on biosensor, scFv in solution
T5 construct: domain: KDR1-3 domains; Immobilized on the Octet biosensor; also called KDR D1-D3; KDR1-3 domain-Fc (as used for panning)
Method: The binding ability of the selected antibodies to the antigen was measured using Octet (Fortebio). To this end, KDR1-3 domains were immobilized on a biosensor, candidate antibodies expressed in scFv form were added and bound, and the dissociation rate constant was measured. The results of measurement of dissociation rate constant for the five selected optimized clones [Table 1] and amino acid sequences [Tables 2 and 3] are shown below.

T3 sequence (Q9NR61 27-685): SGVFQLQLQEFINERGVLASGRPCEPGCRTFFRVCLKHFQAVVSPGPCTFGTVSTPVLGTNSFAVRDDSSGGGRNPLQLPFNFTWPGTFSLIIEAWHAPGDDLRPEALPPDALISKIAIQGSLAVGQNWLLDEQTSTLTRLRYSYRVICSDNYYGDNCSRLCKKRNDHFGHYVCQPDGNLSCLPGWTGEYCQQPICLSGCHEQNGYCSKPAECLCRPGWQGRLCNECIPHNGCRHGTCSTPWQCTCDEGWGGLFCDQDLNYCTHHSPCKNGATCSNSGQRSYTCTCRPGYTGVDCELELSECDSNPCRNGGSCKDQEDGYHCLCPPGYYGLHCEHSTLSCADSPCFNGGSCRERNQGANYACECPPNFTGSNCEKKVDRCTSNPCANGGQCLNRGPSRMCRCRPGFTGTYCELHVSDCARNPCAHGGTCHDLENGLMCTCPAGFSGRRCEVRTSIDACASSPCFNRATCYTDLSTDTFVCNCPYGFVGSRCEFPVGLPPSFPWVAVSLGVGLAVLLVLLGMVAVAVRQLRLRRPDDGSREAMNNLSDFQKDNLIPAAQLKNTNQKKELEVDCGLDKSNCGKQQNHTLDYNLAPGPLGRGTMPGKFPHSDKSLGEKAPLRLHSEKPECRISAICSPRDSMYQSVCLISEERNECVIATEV
T4 sequence (P35968 20-1356 limits assumed): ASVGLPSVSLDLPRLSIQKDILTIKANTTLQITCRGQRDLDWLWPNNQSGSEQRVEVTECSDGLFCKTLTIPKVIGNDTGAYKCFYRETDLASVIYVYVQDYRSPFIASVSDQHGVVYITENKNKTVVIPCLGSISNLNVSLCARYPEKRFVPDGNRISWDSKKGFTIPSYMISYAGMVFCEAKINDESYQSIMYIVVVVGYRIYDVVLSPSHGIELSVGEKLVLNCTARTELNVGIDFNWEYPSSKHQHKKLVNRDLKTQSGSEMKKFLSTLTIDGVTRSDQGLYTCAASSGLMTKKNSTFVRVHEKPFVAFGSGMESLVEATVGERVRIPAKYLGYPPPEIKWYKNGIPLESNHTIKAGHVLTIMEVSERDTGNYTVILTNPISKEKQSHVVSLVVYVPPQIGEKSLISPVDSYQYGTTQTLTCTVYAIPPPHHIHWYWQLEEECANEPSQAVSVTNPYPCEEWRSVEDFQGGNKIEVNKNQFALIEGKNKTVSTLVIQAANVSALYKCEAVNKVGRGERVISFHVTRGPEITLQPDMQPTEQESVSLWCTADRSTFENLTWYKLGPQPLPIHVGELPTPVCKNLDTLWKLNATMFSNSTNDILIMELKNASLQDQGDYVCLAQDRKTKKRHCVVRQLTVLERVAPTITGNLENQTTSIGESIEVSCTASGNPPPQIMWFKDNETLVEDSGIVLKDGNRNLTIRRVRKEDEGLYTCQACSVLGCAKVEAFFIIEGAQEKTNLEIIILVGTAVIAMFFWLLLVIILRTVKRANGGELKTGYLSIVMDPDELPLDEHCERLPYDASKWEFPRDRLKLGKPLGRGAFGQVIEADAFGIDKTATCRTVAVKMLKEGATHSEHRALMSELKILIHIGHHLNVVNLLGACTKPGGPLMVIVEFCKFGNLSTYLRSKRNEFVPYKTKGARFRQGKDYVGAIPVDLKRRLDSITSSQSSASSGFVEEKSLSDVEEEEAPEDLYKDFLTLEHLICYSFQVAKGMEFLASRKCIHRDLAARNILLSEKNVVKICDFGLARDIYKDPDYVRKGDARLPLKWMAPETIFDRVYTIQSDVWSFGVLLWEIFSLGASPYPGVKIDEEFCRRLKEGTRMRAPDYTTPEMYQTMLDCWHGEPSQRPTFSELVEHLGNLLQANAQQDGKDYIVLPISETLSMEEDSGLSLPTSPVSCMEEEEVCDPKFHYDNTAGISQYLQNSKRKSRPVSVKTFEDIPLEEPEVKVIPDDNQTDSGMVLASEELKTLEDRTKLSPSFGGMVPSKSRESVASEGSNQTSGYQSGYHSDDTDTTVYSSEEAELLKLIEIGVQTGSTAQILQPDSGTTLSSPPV
T5 sequence (P35968 20-327 limits assumed): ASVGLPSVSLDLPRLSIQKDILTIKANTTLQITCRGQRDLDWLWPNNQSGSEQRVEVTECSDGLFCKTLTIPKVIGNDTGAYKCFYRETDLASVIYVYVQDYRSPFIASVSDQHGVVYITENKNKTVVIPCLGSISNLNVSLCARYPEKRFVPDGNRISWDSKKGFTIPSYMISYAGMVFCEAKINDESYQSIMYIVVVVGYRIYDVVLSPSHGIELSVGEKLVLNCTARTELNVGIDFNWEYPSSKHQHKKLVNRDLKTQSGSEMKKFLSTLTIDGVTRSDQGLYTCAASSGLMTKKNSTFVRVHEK
T2 sequence (P35968 20-764): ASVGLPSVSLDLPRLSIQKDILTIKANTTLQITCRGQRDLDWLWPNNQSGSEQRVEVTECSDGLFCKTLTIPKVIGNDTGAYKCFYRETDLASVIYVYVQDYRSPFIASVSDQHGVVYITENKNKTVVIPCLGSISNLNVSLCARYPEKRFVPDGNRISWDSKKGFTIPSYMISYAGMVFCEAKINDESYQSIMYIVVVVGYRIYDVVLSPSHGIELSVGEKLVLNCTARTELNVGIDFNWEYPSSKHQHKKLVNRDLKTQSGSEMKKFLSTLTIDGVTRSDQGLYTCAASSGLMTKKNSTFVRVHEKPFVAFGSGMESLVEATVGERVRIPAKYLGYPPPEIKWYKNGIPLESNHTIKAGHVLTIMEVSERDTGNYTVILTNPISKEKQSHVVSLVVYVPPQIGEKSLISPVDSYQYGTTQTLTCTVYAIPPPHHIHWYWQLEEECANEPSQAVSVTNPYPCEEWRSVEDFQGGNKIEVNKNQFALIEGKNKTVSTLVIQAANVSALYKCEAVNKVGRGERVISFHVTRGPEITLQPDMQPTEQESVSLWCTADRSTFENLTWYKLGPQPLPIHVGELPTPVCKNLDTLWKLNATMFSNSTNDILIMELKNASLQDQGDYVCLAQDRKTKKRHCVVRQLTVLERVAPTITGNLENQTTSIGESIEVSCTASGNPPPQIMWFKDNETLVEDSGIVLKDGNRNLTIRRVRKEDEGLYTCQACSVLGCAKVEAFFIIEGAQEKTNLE
T1 sequence (Q9NR61 27-524 limits assumed): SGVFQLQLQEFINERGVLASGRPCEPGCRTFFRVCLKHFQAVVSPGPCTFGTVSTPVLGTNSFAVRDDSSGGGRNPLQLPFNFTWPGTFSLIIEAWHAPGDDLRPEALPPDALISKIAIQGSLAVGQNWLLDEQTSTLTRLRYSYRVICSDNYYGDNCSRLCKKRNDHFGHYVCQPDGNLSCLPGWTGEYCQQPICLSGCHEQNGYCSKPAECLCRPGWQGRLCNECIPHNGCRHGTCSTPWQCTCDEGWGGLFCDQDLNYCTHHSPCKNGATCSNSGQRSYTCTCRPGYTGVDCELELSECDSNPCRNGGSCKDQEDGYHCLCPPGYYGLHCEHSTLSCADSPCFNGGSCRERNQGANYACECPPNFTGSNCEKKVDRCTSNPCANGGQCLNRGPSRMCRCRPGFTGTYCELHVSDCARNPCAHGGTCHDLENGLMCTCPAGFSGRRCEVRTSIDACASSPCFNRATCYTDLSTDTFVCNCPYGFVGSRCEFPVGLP

Row | Binder | Geometric Mean : PE-A [1] | Geometric Mean : PE-A (VEGFR2 (KDR) on HUVECs) | koff (KDR1-3 domains) | other results
1 | 6A6×DLL4 (bispecific antibody, Comparative fusion protein with a 6A6 backbone; it was captured on a Protein A chip; also called 6A6xDLL4) VH: QMQLVQSGAEVKKPGASVKLSCKASGYTFSSYWMHWVRQAPGQRLEWMGEINPGNGHTNYNEKFKSRVTITVDKSASTAYMELSSLRSEDTAVYYCAKIWGPSLTSPFDYWGQGTLVTVSS Notch1-VL: not shown | 968 | 380 |  | Pmax (hDLL4): 74.9; kon (hDLL4): 45800 M⁻¹ s⁻¹; Kd (hKDR-ECD): 4.46 nM; Pmax (hKDR-ECD): 502; koff (hKDR-ECD): 0.000837 s⁻¹; kon (hKDR-ECD): 188000 M⁻¹ s⁻¹
2 | 6A6 (control antibody) (antibody, V domains shown) VH: QMQLVQSGAEVKKPGASVKLSCKASGYTFSSYWMHWVRQAPGQRLEWMGEINPGNGHTNYNEKFKSRVTITVDKSASTAYMELSSLRSEDTAVYYCAKIWGPSLTSPFDYWGQGTLVTVSS VL: SNFMLTQPPSVSVSPGKTARITCRGDNLGDVNVHWYQQRPGQAPVLVMYYDADRPSGIPERFSGSNSGNTATLTISGVEAGDEADYYCQVWDRTSEYVFGTGTKVTVLG | 84.6 | 352 |  | 
3 | D4 (IgG1 form) (antibody, V domains shown, also called optimized antibody D4) VH: EVQLVESGGGLVQPGGSLRLSCAASGYTFSSYWMSWVRQAPGKGLEWVSEINPGNGHTNYNEKFKSRFTISRDKSKNTLYLQMNSLRAEDTAVYYCARHWGPSLTSPFDYWGQGTLVTVSS VL: DIQMTQSPSSLSASVGDRVTITCRADNLGDVNVHWYQQKPGKAPKLLIYYDADRPSGVPSRFSGSNSGNDATLTISSLQPEDFATYYCQAPTNNDPYTFGQGTKVEIKR | 71.1 | 456 |  | 
4 | D4 (scFv form) (scFv, V domains shown, Tested as scFv) VH: EVQLVESGGGLVQPGGSLRLSCAASGYTFSSYWMSWVRQAPGKGLEWVSEINPGNGHTNYNEKFKSRFTISRDKSKNTLYLQMNSLRAEDTAVYYCARHWGPSLTSPFDYWGQGTLVTVSS VL: DIQMTQSPSSLSASVGDRVTITCRADNLGDVNVHWYQQKPGKAPKLLIYYDADRPSGVPSRFSGSNSGNDATLTISSLQPEDFATYYCQAPTNNDPYTFGQGTKVEIKR |  |  | 0.000165 s⁻¹ | 
5 | D3 (scFv form) (scFv, V domains shown, Tested as scFv) VH: EVQLVESGGGLVQPGGSLRLSCAASGYTFSSYWMSWVRQAPGKGLEWVSEINPGNGHTNYNEKFKSRFTISRDKSKNTLYLQMNSLRAEDTAVYYCARHWGPSLTSPFDYWGQGTLVTVSS VL: DIQMTQSPSSLSASVGDRVTITCRADNLGDVNVHWYQQKPGKAPKLLIYYDADRPSGVPSRFSGSNSGNDATLTISSLQPEDFATYYCQAPTKNVPYTFGQGTKVEIKR |  |  | 0.00015 s⁻¹ | 
6 | A5 (scFv form) (scFv, V domains shown, Tested as scFv) VH: EVQLVESGGGLVQPGGSLRLSCAASGYTFSSYWMSWVRQAPGKGLEWVSEINPGNGHTNYNEKFKSRFTISRDKSKNTLYLQMNSLRAEDTAVYYCARHWGPSLTSPFDYWGQGTLVTVSS VL: DIQMTQSPSSLSASVGDRVTITCRADNLGDVNVHWYQQKPGKAPKLLIYYDADRPSGVPSRFSGSNSGNDATLTISSLQPEDFATYYCQAPTTHLPYTFGQGTKVEIKR |  |  | 0.000187 s⁻¹ | 
7 | LH-E7 (scFv form) (scFv, V domains shown, Tested as scFv) VH: EVQLVESGGGLVQPGGSLRLSCAASGYTFSSYWMSWVRQAPGKGLEWVSEINPGNGHTNYNEKFKSRFTISRDKSKNTLYLQMNSLRAEDTAVYYCARHWGPSLTSPFDYWGQGTLVTVSS VL: DIQMTQSPSSLSASVGDRVTITCRADNLGDVNVHWYQQKPGKAPKLLIYYDADRPSGVPSRFSGSNSGNDATLTISSLQPEDFATYYCQAPTRIAPYTFGQGTKVEIKR |  |  | 0.000111 s⁻¹ | 
8 | LHL-G1 (scFv form) (scFv, V domains shown, Tested as scFv) VH: EVQLVESGGGLVQPGGSLRLSCAASGYTFSSYWMSWVRQAPGKGLEWVSEINPGNGHTNYNEKFKSRFTISRDKSKNTLYLQMNSLRAEDTAVYYCARSYRPSLTSPFDFWGQGTLVTVSS VL: DIQMTQSPSSLSASVGDRVTITCRADNLGDVNVHWYQQKPGKAPKLLIYYDADRPSGVPSRFSGSNSGNDATLTISSLQPEDFATYYCQAPTTNEPYTFGQGTKVEIKR |  |  | 0.000239 s⁻¹ | 
